19 sequences from the DeepSol protein solubility set can be followed below.

A short description of this data set: soluble on expression in E. coli; label from the status in PepcDB or PDB records.
As to “GPLENWFTEFDIKPLASASIAQVHTARLKDTNQEVVLKVIRPDIRPVIDSDLKLMHRMARIVAGAMPEARRLKPVEVVREYEKTLLDELDLRREAANAIQLRRNFEGSEELYVPEVFPDFS”, the “soluble on expression in E. coli” value was “not soluble”.

Take “GPLGSAQTLQMEIPNFGNSILECLNEQRLQGLYCDVSVVVKGHAFKAHRAVLAASSSYFRDLFNNSRSAVVELPAAVQPQSFQQILSFCYTGRLSMNVGDQDLLMYTAGFLQIQEIMEKGTEFFLKVSS”: the “soluble on expression in E. coli” value is “soluble”.

In the case of “GPLGSGGLFFNALKNCKENFTVLQTIRQQQSTLNGSWVALLQTRNTLNRAGIRYMMDQNNIGSGSTVAELMESASISLKQAEKNWADYEALPRDPRQSTAAAAEIKRNYDIYHNALAELIQLLGAGKINEFFDQPTQGYQDGFEKQYVAYMEQNDRLHDIAVSDNNASYSHHHHHH”, the “soluble on expression in E. coli” value is recorded as “soluble”.

For the sequence “GPLGSPEFGYWITCCPTCDVDINTWVPFYSTELNKPAMIYCSHGDGHWVHAQCMDLEERTLIHLSEGSNKYYCNEHVQIARA”, the “soluble on expression in E. coli” value is given as “soluble”.

With “GPLGSSWLFLEVIAGPAIGLQHAVNSTSSSKLPVKLGRVSPSDLALKDSEVSGKHAQITWNSTKFKWELVDMGSLNGTLVNSHSISHPDLGSRKWGNPVELASDDIITLGTTTKVYVRISSQNEFQIPFKIGVASDPMA”, the “soluble on expression in E. coli” value was “soluble”.

For the sequence “GPLHMVKVALAGCPNVGKTSLFNALTGTKQYVANWPGVTVEKKEGVFTYKGYTINLIDLPGTYSLGYSSIDEKIARDYLLKGDADLVILVADSVNPEQSLYLLLEILEMEKKVILAMTAIDEAKKTGMKIDRYELQKHLGIPVVFTSSVTGEGLEELKEKIVEYAQKNTILHRMILDYGEKVESEIKKVENFLRDKKLRINPRYFALKYLSGDPEFYSEGVKLGLPELSEEERIGYRLLIAKRKREYVENVVKEAFAD”, the “soluble on expression in E. coli” value is on record as “soluble”.

“GPRRTRTTFTSSQIAELEQHFLQGRYLTAPRLADLSAKLALGTAQVKIWFKNRRRRHKIQSDQHKDQS”: the “soluble on expression in E. coli” value was “soluble”.

Regarding “GPSASLLVQNGTLNVGDAIVVGNTYGRIRAMVNDLGQRIKTAGPSTPVEITGINDVPQAGDRFV”, the “soluble on expression in E. coli” value is given as “soluble”.

For “GPVNPAENFRVLVKQKKASFEEASNQLINHIEQFLDTNETPYFMKSIDCIRAFREEAIKFSEEQRFNNFLKALQEKVEIKQLNHFWEIVVQDGITLITKEEASGSSVTAEEAKKFLAPKD”, the “soluble on expression in E. coli” value is “soluble”.

Take “GPVWRKHYITYRINNYTPDMNREDVDYAIRKAFQVWSNVTPLKFSKINTGMADILVVFARGAHGDDHAFDGKGGILAHAFGPGSGIGGDAHFDEDEFWTTHSGGTNLFLTAVHEIGHSLGLGHSSDPKAVMFPTYKYVDINTFRLSADDIRGIQSLYGDPKENQRLPNPDNSEPALCDPNLSFDAVTTVGNKIFFFKDRFFWLKVSERPKTSVNLISSLWPTLPSGIEAAYEIEARNQVFLFKDDKYWLISNLRPEPNYPKSIHSFGFPNFVKKIDAAVFNPRFYRTYFFVDNQYWRYDERRQMMDPGYPKLITKNFQGIGPKIDAVFYSKNKYYYFFQGSNQFEYDFLLQRITKTLKSNSWFGC”: the “soluble on expression in E. coli” value is on record as “soluble”.

Consider “GPWKGGRGRAASLLPLNRALGTTRPHKEGEVPGVDYIFITVEDFMELEKSGALLESGTYEDNYYGTPKPPAEPAPLLLNVTDQILPGATPSAEGKRKRNKSVSNMEKASIEPPEEEEEERPVVNGNGVVVTPESSEHEDKSAGASGEMPSQPYPAPVYSQPEELKEQMDDTKPTKPEDNEEPDPLPDNWEMAYTEKGEVYFIDHNTKTTSWLDPRLAKKAKPPEECKENELPYGWEKIDDPIYGTYYVDHINRRTQFENPVLEAKRKLQQHNMPHTELGTKPLQAPGFREKPLFTRDASQLKGTFLSTTLKKSNMGFGFTIIGGDEPDEFLQVKSVIPDGPAAQDGKMETGDVIVYINEVCVLGHTHADVVKLFQSVPIGQSVNLVLCRGYPLPFDPEDPANSMVPPLAIMERPPPVMVNGRHNYETYLEYISRTSQSVPDITDRPPHSLHSMPTDGQLDGTYPPPVHDDNVSMASSGATQAELMTLTIVKGAQGFGFTIADSPTGQRVKQILDIQGCPGLCEGDLIVEINQQNVQNLSHTEVVDILKDCPIGSETSLIIHRGGFFSPWKTPKPIMDRWENQGSPQTSLSAPAIPQNLPFPPALHRSSFPDSTEAFDPRKPDPYELYEKSRAIYESRRPDYKELDVHLRRMESGFGFRILGGDEPGQPILIGAVIAMGSADRDGRLHPGDELVYVDGIPVAGKTHRYVIDLMHHAARNGQVNLTVRRKVLCGGEPCPENGRSPGSVSTHHSSPRSDYATYTNSNHAAPSSNASPPEGFASHSLQTSDVVIHRKENEGFGFVIISSLNRPESGSTITVPHKIGRIIDGSPADRCAKLKVGDRILAVNGQSIINMPHADIVKLIKDAGLSVTLRIIPQEELNSPTSAPSSEKQSPMAQQSPLAQQSPLAQPSPATPNSPIAQPAPPQPLQLQGHENSYRSEVKARQDVKPDIRQPPFTDYRQPPLDYRQPPGGDYQQPPPLDYRQPPLLDYRQHSPDTRQYPLSDYRQPQDFDYFTVDMEKGAKGFGFSIRGGREYKMDLYVLRLAEDGPAIRNGRMRVGDQIIEINGESTRDMTHARAIELIKSGGRRVRLLLKRGTGQVPEYDEPAPWSSPAAAAPGLPEVGVSLDDGLAPFSPSHPAPPSDPSHQISPGPTWDIKREHDVRKPKELSACGQKKQRLGEQRERSASPQRAARPRLEEAPGGQGRPEAGRPASEARAPGLAAADAADAARAGGKEAPRAAAGSELCRREGPGAAPAFAGPGGGGSGALEAEGRAGARAGPRPGPRPPGGAPARKAAVAPGPWKVPGSDKLPSVLKPGASAASR”, for which the “soluble on expression in E. coli” value is listed as “soluble”.

Consider “GQEVTMWGDSHGVAPNQVRRTLVKVALSESLPPGAKQIRIGFSLPKETEEKVTALYLLVSDSLAVRDLPDYKGRVSYDSFPISKEDRTTALSADSVAGRRFFYLAADIGPVASFSRSDTLTARVEEVAVDGRPLPLKELSPASRRLYRGY”, for which the “soluble on expression in E. coli” value was “not soluble”.

For the sequence “GQTTIQVRVPYRVVGLVVGPKGATIKRIQQRTHTYIVTPGRDKEPVFAVTGMPENVDRAREEIEAHITLR”, the “soluble on expression in E. coli” value is recorded as “soluble”.

With “GSAGKFIVIFKNDVSEDKIRETKDEVIAEGGTITNEYNMPGMKGFAGELTPQSLTKFQGLQGDLIDSIEEDGIVTTQ”, the “soluble on expression in E. coli” value was “soluble”.

For “GSALRELKVCLLGDTGVGKSSIMWRFVEDSFDPNINPTIGASFMTKTVQYQNELHKFLIWDTAGLERFRALAPMYYRGSAAAIIVYDITKEETFSTLKNWVRELRQHGPPSIVVAIAGNKCDLTDVREVMERDAKDYADSIHAIFVETSAKNAININELFIEISRRIPST”, the “soluble on expression in E. coli” value is “soluble”.

With “GSAPAKEPSVNTALVPQLSTISRALTPSPVMVLENIEPEIVYAGYDSSKPDTAENLLSTLNRLAGKQMIQVVKWAKVLPGFKNLPLEDQITLIQYSWMSLSSFALSWRSYKHTNSQFLYFAPDLVFNEEKMHQSAMYELCQGMHQISLQFVRLQLTFEEYTIMKVLLLLSTIPKDGLKSQAAFEEMRTNYIKELRKMVTKCPNNSGQSWQRFYQLTKLLDSMHDLVSDLLEFCFYTFRESHALKVEFPAMLVEIISDQLPKVESGNAKPLYFHRK”, the “soluble on expression in E. coli” value is given as “soluble”.

Take “GSASKICQFKLVLLGESAVGKSSLVLRFVKGQFHEYQESTIGAAFLTQSVCLDDTTVKFEIWDTAGQERYHSLAPMYYRGAQAAIVVYDITNQETFARAKTWVKELQRQASPSIVIALAGNKADLANKRMVEYEEAQAYADDNSLLFMETSAKTAMNVNDLFLAIAKKLPKSEPQNLGG”: the “soluble on expression in E. coli” value was “soluble”.

For “GSCKLPVKKATVVYQGERVKIQEKFKNGMLHGDKVSFFCKNKEKKCSYTEDAQCIDGTIEVPKCFKEHSSLAFWKTDASDVKPCA”, the “soluble on expression in E. coli” value was “soluble”.

For the sequence “GSDALVGRLVKSSWDMKSLDLHSMLVETMSKSDHVLIVGFGRGGQTVGRVLAQEDIPYFALDLDIARVQVARSAGEPVSFGDAKRREVLEAAGLGRAKMVVVTLNNMHETQHVLDNVLSMYPNMPVYVRATNDDYVKTFTDIGAEEAVSDTKETGLVLAGYAMLGNGASYRHVYQTMANIRHSRYAALEGLFVGSDDEAGFGENGETVRHAFPLAAEAYAVGKTVGTLPMAAYGIKLLFVRRRTGRIENPDASFTLEGGDVLVVAGKKEEIISFENWSLQGI”, the “soluble on expression in E. coli” value is listed as “not soluble”.
